We go through two molecules from paper doi:10.1101/388470 (bioRxiv, 2018).

The series “co-sedimentation” deals with the molecule itself. The series can be described thus: co-sedimentation.
Series [1] has as its target T1, Cdc45-5FLAG (S. cerevisiae), Q08032.
T1 chain: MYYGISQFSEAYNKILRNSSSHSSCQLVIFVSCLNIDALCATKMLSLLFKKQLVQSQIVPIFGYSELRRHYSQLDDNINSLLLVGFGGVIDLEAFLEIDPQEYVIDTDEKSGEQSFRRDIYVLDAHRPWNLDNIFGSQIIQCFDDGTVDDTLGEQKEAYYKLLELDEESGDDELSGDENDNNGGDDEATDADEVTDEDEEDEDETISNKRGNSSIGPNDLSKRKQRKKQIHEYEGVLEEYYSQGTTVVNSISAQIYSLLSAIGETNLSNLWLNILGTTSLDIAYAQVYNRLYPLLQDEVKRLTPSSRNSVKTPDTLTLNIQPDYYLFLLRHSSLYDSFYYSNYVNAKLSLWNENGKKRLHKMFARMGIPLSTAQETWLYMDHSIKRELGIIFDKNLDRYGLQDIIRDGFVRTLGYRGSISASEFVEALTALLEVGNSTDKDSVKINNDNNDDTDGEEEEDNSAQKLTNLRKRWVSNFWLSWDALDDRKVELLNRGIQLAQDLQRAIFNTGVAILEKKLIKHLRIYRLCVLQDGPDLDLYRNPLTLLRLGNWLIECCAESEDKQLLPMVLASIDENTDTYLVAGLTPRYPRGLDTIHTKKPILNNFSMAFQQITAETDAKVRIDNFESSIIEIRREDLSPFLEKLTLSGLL
Briefly: co-sedimentation. The conditions noted are these: remark: other sources report otherwise.

B1: Psf2-5FLAG (natural protein)
chain: MSLPAHLQQTFSPEEIQFIVENEPIKIFPRITTRQKIRGDDRGTGNHTRWQLITTDDKALNNMVAMRSTEVVLWIALLLKQQSKCSIVAPQWLTTKELDRKIQYEKTHPDRFSELPWNWLVLARILFNKAKDDFHDPIHELRGKIQDLREIRQIKVLKGLKYLNESHLQLDNLSLLEINELRPFITEIMDKLREIHTASLTAGTENDEEEFNI
On to B1, for which the “stoichiometry N” value in the series “co-sedimentation” was 2.

B2: Cdc45-5FLAG, Q08032 1-650 (natural protein)
chain: MYYGISQFSEAYNKILRNSSSHSSCQLVIFVSCLNIDALCATKMLSLLFKKQLVQSQIVPIFGYSELRRHYSQLDDNINSLLLVGFGGVIDLEAFLEIDPQEYVIDTDEKSGEQSFRRDIYVLDAHRPWNLDNIFGSQIIQCFDDGTVDDTLGEQKEAYYKLLELDEESGDDELSGDENDNNGGDDEATDADEVTDEDEEDEDETISNKRGNSSIGPNDLSKRKQRKKQIHEYEGVLEEYYSQGTTVVNSISAQIYSLLSAIGETNLSNLWLNILGTTSLDIAYAQVYNRLYPLLQDEVKRLTPSSRNSVKTPDTLTLNIQPDYYLFLLRHSSLYDSFYYSNYVNAKLSLWNENGKKRLHKMFARMGIPLSTAQETWLYMDHSIKRELGIIFDKNLDRYGLQDIIRDGFVRTLGYRGSISASEFVEALTALLEVGNSTDKDSVKINNDNNDDTDGEEEEDNSAQKLTNLRKRWVSNFWLSWDALDDRKVELLNRGIQLAQDLQRAIFNTGVAILEKKLIKHLRIYRLCVLQDGPDLDLYRNPLTLLRLGNWLIECCAESEDKQLLPMVLASIDENTDTYLVAGLTPRYPRGLDTIHTKKPILNNFSMAFQQITAETDAKVRIDNFESSIIEIRREDLSPFLEKLTLSGLL
The molecule B2 registered a stoichiometry N in series [1] of 2.

Broadly, the stoichiometry N is a count of units in the complex or per binding partner.
